# Data published in publication PMC5959753 (Cell chemical biology, 2018).
# Where two headings read alike, the source gives them in different places.
# Assays:
# crystal structure [1] = target: the molecule itself; assay: crystal structure
# crystal structure [2] = target: the molecule itself; assay: crystal structure; remark: listed apart in the source
Protein,stoichiometry N (crystal structure [1]),stoichiometry N (crystal structure [2])
"Neurospora crassa C-S lyase Egt2, wild type (enzyme, UniProt A7UX13 1-473, looked up, PLP covalently bound to K247 (internal aldimine); selenomethionine in the derivative crystals used for the final structure) MVATTVELPLQQKADAAQTVTGPLPFGNSLLKEFVLDPAYRNLNHGSFGTIPSAIQQKLRSYQTAAEARPCPFLRYQTPVLLDESRAAVANLLKVPVETVVFVANATMGVNTVLRNIVWSADGKDEILYFDTIYGACGKTIDYVIEDKRGIVSSRCIPLIYPAEDDDVVAAFRDAIKKSREEGKRPRLAVIDVVSSMPGVRFPFEDIVKICKEEEIISCVDGAQGIGMVDLKITETDPDFLISNCHKWLFTPRGCAVFYVPVRNQHLIRSTLPTSHGFVPQVGNRFNPLVPAGNKSAFVSNFEFVGTVDNSPFFCVKDAIKWREEVLGGEERIMEYMTKLAREGGQKVAEILGTRVLENSTGTLIRCAMVNIALPFVVGEDPKAPVKLTEKEEKDVEGLYEIPHEEANMAFKWMYNVLQDEFNTFVPMTFHRRRFWARLSAQVYLEMSDFEWAGKTLKELCERVAKGEYKESA",2,–
"Neurospora crassa C-S lyase Egt2 Y134F (enzyme, UniProt A7UX13 1-473, looked up, PLP covalently bound to K247 (internal aldimine)) MVATTVELPLQQKADAAQTVTGPLPFGNSLLKEFVLDPAYRNLNHGSFGTIPSAIQQKLRSYQTAAEARPCPFLRYQTPVLLDESRAAVANLLKVPVETVVFVANATMGVNTVLRNIVWSADGKDEILYFDTIFGACGKTIDYVIEDKRGIVSSRCIPLIYPAEDDDVVAAFRDAIKKSREEGKRPRLAVIDVVSSMPGVRFPFEDIVKICKEEEIISCVDGAQGIGMVDLKITETDPDFLISNCHKWLFTPRGCAVFYVPVRNQHLIRSTLPTSHGFVPQVGNRFNPLVPAGNKSAFVSNFEFVGTVDNSPFFCVKDAIKWREEVLGGEERIMEYMTKLAREGGQKVAEILGTRVLENSTGTLIRCAMVNIALPFVVGEDPKAPVKLTEKEEKDVEGLYEIPHEEANMAFKWMYNVLQDEFNTFVPMTFHRRRFWARLSAQVYLEMSDFEWAGKTLKELCERVAKGEYKESA",–,2
